Target: T1, Galectin-3 (UniProt P17931 1-250, limits assumed)
T1 construct: Immobilized on magnetic particles for panning and on ELISA wells via NeutrAvidin; also called Gal-3; target Galectin-3
Experiment: ELISA, eight 2-fold dilutions starting from 1.5 uM

T1 sequence (P17931 whole entry): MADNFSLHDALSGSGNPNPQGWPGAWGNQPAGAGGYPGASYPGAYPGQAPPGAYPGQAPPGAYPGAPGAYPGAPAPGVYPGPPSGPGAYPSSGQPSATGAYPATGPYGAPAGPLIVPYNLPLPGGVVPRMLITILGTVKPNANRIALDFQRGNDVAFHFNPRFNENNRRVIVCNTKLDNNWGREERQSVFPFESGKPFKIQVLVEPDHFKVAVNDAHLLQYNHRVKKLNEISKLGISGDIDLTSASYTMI

EC50 [nM] | Binder
92.5 | 1E2 mutant (2u2f mutant from Cluster 1) (designed binder, Purified monomer from a pET22b vector in E. coli (IMAC, SEC); The tag is not described) AHKLFIGGLPVDYNDDQVKELLTSFGPLKAFNLVKDSATGLSKGYAFAEYVDINVTDQAIAGLNGNVCHLHTLLVQRASVGAKNADYKDDDDKLEHHHHHH
201 | 4H5 mutant (2u2f mutant from Cluster 4) (designed binder, Purified monomer from a pET22b vector in E. coli (IMAC, SEC); The tag is not described) AHKLFIGGLPDYYGDDQVKELLTSFGPLKAFNLVKDSATGLSKGYAFAEYVDINVTDQAIAGLNGRFYGTATLLVQRASVGAKNADYKDDDDKLEHHHHHH
79.9 | 1H2 mutant (2u2f mutant from Cluster 1) (designed binder, Purified monomer from a pET22b vector in E. coli (IMAC, SEC); The tag is not described) AHKLFIGGLPVDYNDDQVKELLTSFGPLKAFNLVKDSATGLSKGYAFAEYVDINVTDQAIAGLNGSGSRIRALLVQRASVGAKNADYKDDDDKLEHHHHHH
277 | 3B5 mutant (2u2f mutant from Cluster 3) (designed binder, Purified monomer from a pET22b vector in E. coli (IMAC, SEC); The tag is not described) AHKLFIGGLPADGDDDQVKELLTSFGPLKAFNLVKDSATGLSKGYAFAEYVDINVTDQAIAGLNGFATSRFSLLVQRASVGAKNADYKDDDDKLEHHHHHH
